This is an account of results in US20240376151A1, “STAPLED PEPTIDES AND METHODS THEREOF” (FOG PHARMACEUTICALS, INC., priority 2022, published 2024).

Experiment [1] addresses human PD-L1 (residues 18-239) with C-terminal human IgG Fc-Avi tag (human), Q9NZQ7. Put plainly: SPR.
In experiment [2] the target is T1, CUL1 N-terminal domain (residues 15-410, V367R/L371D) (human), Q13616. Briefly: phage display screen, bead-bound target, spike-in-normalized NGS; target 1000 nM (second column).
Experiment [3] concerns the target T1, CUL1 N-terminal domain (residues …). Briefly: phage display screen, bead-bound target, spike-in-normalized NGS; target 300 nM.
Experiment [4] shares this target. Briefly: phage display screen, bead-bound target, spike-in-normalized NGS; target 1000 nM.
Experiment [5] shares this target. Briefly: phage display screen, bead-bound target, spike-in-normalized NGS; target 10 nM.
The target is the same in experiment [6]. Briefly: phage display screen, bead-bound target, spike-in-normalized NGS; target 100 nM.
The target is the same in experiment [7]. Put plainly: phage display screen, bead-bound target, spike-in-normalized NGS; target 30 nM.
The target in experiment [8] is VHL-ELOBC (human), P40337. Briefly: phage display screen, NGS; column head 300 nM (row is one cell short of the head, alignment unsure).
Sequence of VHL-ELOBC (human), P40337 (P40337 54-213 limits assumed, chain 1 of 3): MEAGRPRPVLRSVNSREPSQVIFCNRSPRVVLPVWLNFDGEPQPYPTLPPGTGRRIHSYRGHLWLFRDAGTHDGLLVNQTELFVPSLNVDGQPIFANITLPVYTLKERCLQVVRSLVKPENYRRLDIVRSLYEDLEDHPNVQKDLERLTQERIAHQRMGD
Sequence of VHL-ELOBC (human), P40337 (Q15370 1-104 limits assumed, chain 2 of 3, further chain): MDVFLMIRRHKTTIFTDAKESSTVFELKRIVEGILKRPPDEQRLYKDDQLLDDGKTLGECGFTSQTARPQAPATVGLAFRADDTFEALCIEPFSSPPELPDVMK
Sequence of VHL-ELOBC (human), P40337 (Q15369 17-112 limits assumed, chain 3 of 3, further chain): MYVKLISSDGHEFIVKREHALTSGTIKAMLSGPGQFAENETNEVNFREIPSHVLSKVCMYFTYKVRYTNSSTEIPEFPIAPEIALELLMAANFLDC
In experiment [9] the target is RNF31 PUB domain protein (residues 1-179), biotinylated (Homo sapiens (Human)) (UniProt Q96EP0). Briefly: phage display screen on bead-immobilized RNF31 PUB, NGS.
Sequence of RNF31 PUB domain protein (residues 1-179), biotinylated (Homo sapiens (Human)) (Q96EP0 1-179): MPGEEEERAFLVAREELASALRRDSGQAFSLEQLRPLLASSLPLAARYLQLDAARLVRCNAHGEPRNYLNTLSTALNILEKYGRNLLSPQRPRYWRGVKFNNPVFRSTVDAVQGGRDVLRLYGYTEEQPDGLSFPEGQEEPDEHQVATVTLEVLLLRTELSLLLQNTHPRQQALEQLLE
The target in experiment [10] is MDM2 p53-binding domain + beta-catenin Armadillo domain (the two proteins bridged in the ternary complex) (human) (UniProt Q00987). Put plainly: direct FP, ternary complex of β-catenin (Armadillo domain) and MDM2 (p53-binding domain).
Sequence of MDM2 p53-binding domain + beta-catenin Armadillo domain (the two proteins bridged in the ternary complex) (human) (Q00987 17-111, chain 1 of 2): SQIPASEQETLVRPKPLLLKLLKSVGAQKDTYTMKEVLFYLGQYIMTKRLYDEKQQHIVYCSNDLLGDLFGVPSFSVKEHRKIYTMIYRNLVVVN
Sequence of MDM2 p53-binding domain + beta-catenin Armadillo domain (the two proteins bridged in the ternary complex) (human) (chain, as listed by the source, chain 2 of 2): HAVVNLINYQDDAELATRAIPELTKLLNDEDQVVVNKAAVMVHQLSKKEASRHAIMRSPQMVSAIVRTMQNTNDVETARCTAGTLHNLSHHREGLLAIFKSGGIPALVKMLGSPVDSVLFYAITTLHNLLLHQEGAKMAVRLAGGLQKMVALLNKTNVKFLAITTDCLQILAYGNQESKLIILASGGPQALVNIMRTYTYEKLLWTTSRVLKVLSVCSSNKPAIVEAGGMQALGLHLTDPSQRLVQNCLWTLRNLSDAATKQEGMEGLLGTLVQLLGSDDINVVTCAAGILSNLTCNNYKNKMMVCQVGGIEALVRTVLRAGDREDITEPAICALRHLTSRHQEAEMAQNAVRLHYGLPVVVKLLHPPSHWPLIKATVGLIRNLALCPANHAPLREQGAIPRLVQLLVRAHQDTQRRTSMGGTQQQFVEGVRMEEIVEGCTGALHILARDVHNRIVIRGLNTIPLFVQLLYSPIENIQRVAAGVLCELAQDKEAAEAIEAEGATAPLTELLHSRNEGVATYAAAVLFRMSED

Numbered stars: 1 amine (or outer) side, 2 acyl side, 3 side chain; on linkers, the order of the positions; unused ones are H or OH. Bridge positions count the residues as written; N and C are the ends. Ends that are not written are not given here. Phenylene(1,4-NHCOCH2)2 = O=C(C[*:1])Nc1ccc(NC(=O)C[*:2])cc1; 8‑residue Gly‑rich linker = not defined here

Sequence of human PD-L1 (residues 18-239) with C-terminal human IgG Fc-Avi tag (human), Q9NZQ7 (Q9NZQ7 18-239): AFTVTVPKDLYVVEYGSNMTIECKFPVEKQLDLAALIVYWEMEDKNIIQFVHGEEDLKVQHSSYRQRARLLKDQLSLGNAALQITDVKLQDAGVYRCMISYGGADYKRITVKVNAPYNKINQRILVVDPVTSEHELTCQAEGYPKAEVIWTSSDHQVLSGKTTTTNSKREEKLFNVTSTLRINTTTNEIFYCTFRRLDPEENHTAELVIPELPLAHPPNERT

In turn, DPAAADCQWAAFLCRVY (modifications not checked) [FP30790] displayed a Kd in experiment [1] of 10 µM.
Take DPAVMECDWAATICDIF (modifications not checked) [phage-displayed Helicon …]: the normalized phage count (normalized counts) in experiment [2] stood at 419; in experiment [3] it was 402; in experiment [4] it was 477; in experiment [5] it was 0; in [6], 154; in experiment [7], 2.
In experiment [8], DPAWWHCVDAALQCDYY (modifications not checked) returned a phage count (normalised phage counts) of 40.
Same read-out and setting: the result for DPAWYACVDAAYFCDYQ (modifications not checked) reads 35.
On the same count and under the same terms, the result for DPAWWHCVAAATQCDQR (modifications not checked) reads 79.
In experiment [9], DPAHILCEMAARNCLYN-{8‑residue Gly‑rich linker-M13 pIII} (peptide, not shown: large carriers, linker 7-14 via Phenylene(1,4-NHCOCH2)2 (inferred); reading uncertain) showed a normalized phage count at Target Concentration 10 (normalized phage counts) of 3, a normalized phage count at Target Concentration 30 (normalized phage counts) of 1, a normalized phage count at Target Concentration 100 (normalized phage counts) of 1 and a normalized phage count at Target Concentration 300 (normalized phage counts) of 1. In [9], this molecule had a normalized phage count at Target Concentration 1000 (normalized phage counts) of 10 and a normalized phage count at Target Concentration 1000 (second column) (normalized phage counts) of 2.
For DPADWTCVLAAHNCLYT-{8‑residue Gly‑rich linker-M13 pIII} (peptide, not shown: large carriers, linker 7-14 via Phenylene(1,4-NHCOCH2)2 (inferred); reading uncertain), in [9], the normalized phage count at Target Concentration 10 (normalized phage counts) is 0, the normalized phage count at Target Concentration 30 (normalized phage counts) is 0, the normalized phage count at Target Concentration 100 (normalized phage counts) was 0 and the normalized phage count at Target Concentration 300 (normalized phage counts) came out at 1. In experiment [9], the normalized phage count at Target Concentration 1000 (normalized phage counts) came out at 3 and the normalized phage count at Target Concentration 1000 (second column) (normalized phage counts) worked out at 9.

B1: H329 (peptide)
peptide: Ac-PMEQQAICFQAAWMCLADDWT-NH2
modifications: bridge 8-15; not fully specified (bridges); printed as Ac-PMEQQAICFQAAWMCLADDWT-NH2
Turning to B1, the EC50 in experiment [10] worked out at 0.014 µM.
